The text below walks through data of paper PMC8177864.

The target in data set [1] is T1, androgen receptor (rAR) (rat, UniProt P15207 1-902). In words: EMSA.
Data set [2] addresses T1, androgen receptor (rAR). In words: EMSA. This is another data set of the same source.

Read-outs that look alike come from different tables or passages of the source.

T1 sequence (P15207 whole entry S389L): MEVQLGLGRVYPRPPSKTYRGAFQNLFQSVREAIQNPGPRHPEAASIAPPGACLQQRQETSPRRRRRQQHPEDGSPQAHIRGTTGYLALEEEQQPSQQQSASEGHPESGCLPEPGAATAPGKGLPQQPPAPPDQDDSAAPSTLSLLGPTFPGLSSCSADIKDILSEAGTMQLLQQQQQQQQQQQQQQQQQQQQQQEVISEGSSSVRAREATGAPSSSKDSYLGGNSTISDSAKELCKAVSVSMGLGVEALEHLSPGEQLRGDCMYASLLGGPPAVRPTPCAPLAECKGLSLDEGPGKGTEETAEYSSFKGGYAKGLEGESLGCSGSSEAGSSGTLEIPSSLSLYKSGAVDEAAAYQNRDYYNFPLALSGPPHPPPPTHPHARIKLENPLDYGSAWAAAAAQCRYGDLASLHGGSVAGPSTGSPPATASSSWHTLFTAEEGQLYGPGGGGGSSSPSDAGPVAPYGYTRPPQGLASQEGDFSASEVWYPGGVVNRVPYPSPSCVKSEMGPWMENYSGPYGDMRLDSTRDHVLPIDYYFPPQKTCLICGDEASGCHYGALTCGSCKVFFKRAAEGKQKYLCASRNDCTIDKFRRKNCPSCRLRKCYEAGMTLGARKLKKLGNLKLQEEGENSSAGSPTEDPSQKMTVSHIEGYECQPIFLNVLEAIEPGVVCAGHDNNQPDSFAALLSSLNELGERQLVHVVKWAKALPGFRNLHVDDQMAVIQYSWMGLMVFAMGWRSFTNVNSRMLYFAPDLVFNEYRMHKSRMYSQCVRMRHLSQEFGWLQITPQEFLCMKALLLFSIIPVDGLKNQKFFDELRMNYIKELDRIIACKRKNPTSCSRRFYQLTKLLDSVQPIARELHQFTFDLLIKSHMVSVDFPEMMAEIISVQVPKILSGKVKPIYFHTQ

B1: -499/-484 HRE (dsDNA)
DNA 1: ATCTAGAATAATTGGTATTAGAACAGGCTGCTTAAAACAGTTAA
DNA 2: TTAACTGTTTTAAGCAGCCTGTTCTAATACCAATTATTCTAGAT
Regarding B1, the binding result with androgen receptor (rAR) [1] is “no binding”.

B2: -159/-144 HRE (dsDNA)
DNA 1: GGGCTTGGCATGTTCTGTTAGCACTCTTTTAGATT
DNA 2: AATCTAAAAGAGTGCTAACAGAACATGCCAAGCCC
On to B2, for which the binding result with androgen receptor (rAR) [1] is on record as “no binding”.

B3: HRE consensus (dsDNA)
DNA 1: ACGGGTGGAACGCGGTGTTCTTTTGGCACG
DNA 2: CGTGCCAAAAGAACACCGCGTTCCACCCGT
For B3, the binding result with androgen receptor (rAR) [2] was “binds”.
